Experimental data reported in patent publication US20240158489A1 (published 2024).

Columns and labels:
Test in all cases: -; FIG. 2B
rat ANG2 = molecular target: T1, rat ANG2 (rat, UniProt O35462 19-496)
T1 chain: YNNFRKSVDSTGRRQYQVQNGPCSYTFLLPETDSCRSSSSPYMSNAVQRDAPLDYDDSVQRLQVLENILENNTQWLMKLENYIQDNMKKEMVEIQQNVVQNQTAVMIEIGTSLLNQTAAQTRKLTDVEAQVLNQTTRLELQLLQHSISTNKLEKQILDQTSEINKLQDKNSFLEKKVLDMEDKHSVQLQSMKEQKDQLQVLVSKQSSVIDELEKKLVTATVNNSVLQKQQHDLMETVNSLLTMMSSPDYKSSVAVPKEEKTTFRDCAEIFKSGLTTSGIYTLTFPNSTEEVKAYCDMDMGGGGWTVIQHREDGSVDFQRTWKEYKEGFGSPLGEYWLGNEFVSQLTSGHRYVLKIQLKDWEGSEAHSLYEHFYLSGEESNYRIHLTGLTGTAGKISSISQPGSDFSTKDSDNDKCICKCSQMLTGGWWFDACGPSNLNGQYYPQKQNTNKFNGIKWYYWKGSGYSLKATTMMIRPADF

rabbit ANG2 = molecular target: T2, rabbit ANG2 (rabbit, UniProt G1T9B3 19-496)
T2 chain: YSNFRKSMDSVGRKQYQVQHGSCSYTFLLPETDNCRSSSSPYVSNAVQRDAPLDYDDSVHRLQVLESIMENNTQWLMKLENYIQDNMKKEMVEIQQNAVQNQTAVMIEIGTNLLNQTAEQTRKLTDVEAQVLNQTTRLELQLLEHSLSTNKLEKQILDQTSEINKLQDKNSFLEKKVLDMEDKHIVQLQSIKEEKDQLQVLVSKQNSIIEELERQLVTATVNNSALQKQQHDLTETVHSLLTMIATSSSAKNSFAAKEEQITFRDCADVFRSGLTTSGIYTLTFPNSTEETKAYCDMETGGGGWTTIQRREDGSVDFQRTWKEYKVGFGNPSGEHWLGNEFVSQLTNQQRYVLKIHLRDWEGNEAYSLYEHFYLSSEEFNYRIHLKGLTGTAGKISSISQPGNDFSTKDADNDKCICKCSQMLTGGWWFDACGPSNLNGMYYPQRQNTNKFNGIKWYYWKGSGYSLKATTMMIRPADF

Cyno ANG-2 = Cyno ANG-2 (monkey)
Rat VEGF164 = molecular target: Rat VEGF164
Rabbit VEGF 165 = molecular target: Rabbit VEGF 165

B1: anti-ANG-2×VEGF bispecific antibody ABP201 (bispecific antibody)
heavy: EVQLLESGGGLVQPGGSLRLSCAASGFTFSWYEMYWVRQAPGKGLEWVSSISPSGGWTMYADSVKGRFTISRDNSKNTLYLQMNSLRAEDTAVYYCATPLYSSDYLSAGDIWGQGTMVTVSSASTKGPSVFPLAPSSKSTSGGTAALGCLVKDYFPEPVTVSWNSGALTSGVHTFPAVLQSSGLYSLSSVVTVPSSSLGTQTYICNVNHKPSNTKVDKRVEPKSCDKTHTCPPCPAPEAAGGPSVFLFPPKPKDTLMISRTPEVTCVVVDVSHEDPEVKFNWYVDGVEVHNAKTKPREEQYNSTYRVVSVLTVLHQDWLNGKEYKCKVSNKALPAPIEKTISKAKGQPREPQVYTLPPSREEMTKNQVSLTCLVKGFYPSDIAVEWESNGQPENNYKTTPPVLDSDGSFFLYSKLTVDKSRWQQGNVFSCSVMHEALHNAYTQKSLSLSPGKGGGGSGGGGSEIVLTQSPGTLSLSPGERATLSCRASQSITGSYLAWYQQKPGQAPRLLITGASSWATGIPDRFSGSGSGTDFTLTISRLEPEDFAVYYCQQYSSSPITFGCGTRLEIKGGGGSGGGGSGGGGSGGGGSQVQLVESGGGVVQPGRSLRLSCAASGFTFTNYGMHWVRQAPGKCLEWVAVISHEGNNKYYVDSVKGRFTISRDNSKNTLYLQMNSLRAEDTAVYYCAREGIDFWSGLNWFDPWGQGTLVTVS
light: EIVLTQSPATLSLSPGERATLSCRASQSVHSSYLAWYQQKPGQAPRLLIYGASSRATGIPDRFSGSGSGTDFTLTISRLEPEDFAVYYCQQSYRTPSFGQGTRLEIKRTVAAPSVFIFPPSDEQLKSGTASVVCLLNNFYPREAKVQWKVDNALQSGNSQESVTEQDSKDSTYSLSSTLTLSKADYEKHKVYACEVTHQGLSSPVTKSFNRGEC
- Kd (rat ANG2): 40.5 nM
- Kd (rabbit ANG2): 30.4 nM

B2: ABP 201 (bispecific antibody)
heavy: EVQLLESGGGLVQPGGSLRLSCAASGFTFSWYEMYWVRQAPGKGLEWVSSISPSGGWTMYADSVKGRFTISRDNSKNTLYLQMNSLRAEDTAVYYCATPLYSSDYLSAGDIWGQGTMVTVSSASTKGPSVFPLAPSSKSTSGGTAALGCLVKDYFPEPVTVSWNSGALTSGVHTFPAVLQSSGLYSLSSVVTVPSSSLGTQTYICNVNHKPSNTKVDKRVEPKSCDKTHTCPPCPAPEAAGGPSVFLFPPKPKDTLMISRTPEVTCVVVDVSHEDPEVKFNWYVDGVEVHNAKTKPREEQYNSTYRVVSVLTVLHQDWLNGKEYKCKVSNKALPAPIEKTISKAKGQPREPQVYTLPPSREEMTKNQVSLTCLVKGFYPSDIAVEWESNGQPENNYKTTPPVLDSDGSFFLYSKLTVDKSRWQQGNVFSCSVMHEALHNAYTQKSLSLSPGKGGGGSGGGGSEIVLTQSPGTLSLSPGERATLSCRASQSITGSYLAWYQQKPGQAPRLLITGASSWATGIPDRFSGSGSGTDFTLTISRLEPEDFAVYYCQQYSSSPITFGCGTRLEIKGGGGSGGGGSGGGGSGGGGSQVQLVESGGGVVQPGRSLRLSCAASGFTFTNYGMHWVRQAPGKCLEWVAVISHEGNNKYYVDSVKGRFTISRDNSKNTLYLQMNSLRAEDTAVYYCAREGIDFWSGLNWFDPWGQGTLVTVS
light: EIVLTQSPATLSLSPGERATLSCRASQSVHSSYLAWYQQKPGQAPRLLIYGASSRATGIPDRFSGSGSGTDFTLTISRLEPEDFAVYYCQQSYRTPSFGQGTRLEIKRTVAAPSVFIFPPSDEQLKSGTASVVCLLNNFYPREAKVQWKVDNALQSGNSQESVTEQDSKDSTYSLSSTLTLSKADYEKHKVYACEVTHQGLSSPVTKSFNRGEC
- Kd (Cyno ANG-2): 29.8 nM
- Kd (Rat VEGF164): 0.62 nM
- Kd (Rabbit VEGF 165): 2.06 nM
